Laboratory results: the DeepSol protein solubility set

Experiment: soluble on expression in E. coli; label from the status in PepcDB or PDB records

Sequence: MNPTNYDPRIGQPAQSRPQVSLSMGRRIVQMPTGLPRSYQDESHNEPVGWDEPSGVGGSSGAGGQQSDKPTGLRHFSTKVCEKVKEKGLTNYNEVADELVADYFQNNLIKQIDVVKQEYDMKNIRRRVYDALNVLLAMNIITKSKKDIRWIGLPASASQEISRLEEEKSRREASISSKKQALEEMVLQIVSYKNLVERNRKNEHKNGRPENDTVLHLPFLIINTDKEANVECSVSSDKSEFLFSFDKKFEIHDDFEILKKLNLACSLETTNPTAEEVKTAKSFLPTLHQHYVDEIIANRKKVEAEKEEKRKQQQLIADQMSMNLSQAQYVEPTSSLAQMSYSSRFNRQLQEHLINDGSEDRSAAAGIMERDYDMDKNVNQGSASRGPMYNTYSPQKIRAQVNTPLQVPPVTKRYYVQKTQGPMKHDMTPVVRTVNRPYSTVPPDRRLSTGATSVNSGPVKYYVPQGHQPMHQPVGQRYRVRPQQPQMSHMGQPHQVQQRVVYPAGSISGHQLQPGQRIVTQRIVAPGGPHPPGTIVRKVIRKIVVNNPKQSPAQQVIQKKMMEQDMCTFERKTEQPMTSAQAAALIQHPQPEEYDYFQ
- soluble on expression in E. coli: not soluble

Sequence: MKKYIITAFAFITLLTGSVTFTACEDIDDIKELNLDRLLSPTNLTARVRDKVNIELTWDEMDRAQSYVIEVFKEDPDFTGTAISTLESEKATYTVTGLEGETSYSIRVKSVAEGITDSKWVSATRSTDAEQILLEVAEEDLTASEVTLRWPAGQVATEIIITPNDVAAHRVTSDEIAAGAATIKNLKSETTYTATLKNGDKTRGTMVFTTLINLDGALPAYPGDNLATIIATAEANATIVLLPKDDNNSFIYTDESGTAKTLEIELTKDVTIKGLYAENRPTTNIKFVLSGCNNFKIENLNLTASDGGTIITVLDSKGGNITVTNCDVTGFGSLLVENDNTQTGTINTFTVDNCIFHDMASGKRFVDYQKKKSFIAEFTLKNSTFYNCCSGSDFIRFDRHSTKGNIINISNCTLYGIEATSKGLFYVRSNSVGNKDFTANITKCIFANMSNKVFFSQDTKTDNLTFNSNYYFEAPSLLSIPEGGAGKVVDATGVTLDPGFTDAANGNFKVSNQTIIDNEIGDPRWRK
- soluble on expression in E. coli: soluble

Sequence: MSSARLVIAGLNGGTGKTILSLGTVRALTNAGHSVKPFKKGPDYIDAEWLGLAAGRAATNLDPFFLDAARLQSLFLHASAGASISIIEGNRGLYDGRDVTGSCSTAELARILDSPVVLAMDCTKMTRTAAAILSGVAAFEPGVKLAGVVLNRTANERHRSMLRQCIEHYTDIPVLGALPRLRDNPIPERHMGLVSDREFAQCAGELDRVAQFVAQHVDVERMAEIARSAQPLASNEPFWPVVAEGDGVRPRIGYVRDAALWFYYEENLEALRQAGADLVELRIIDGDPWPTLDGLYLGGGFPETLASELSACRERLAGIREAALAGLPVYAECGGFMVLGESIVMDGVEYPMSGVFPVQTVFHPKPQGLGYVEAEVVAENPFFPQGMVFRGHEFHYSACRPRDGGAVTHALRLNPGTGMGGGADGLVQANTFAAYTHIFGPAVQGWAERFVRAARGHRDQLNKGTDLSLEHHHHHH
- soluble on expression in E. coli: not soluble

Sequence: MVKTAVLMATYNGEIFISEQLDSIRQQTLKPDYVLLRDDCSTDETVNVVNNYIAKHELEGWKIVKNDKNLGWRLNFRQLLIDVLAYEVDYVFFSDQDDIWYLDKNERQFAIMSDKPQIEVLSADVDIKTMSTEASVPHFLTFSSSDRISQYPKVYDYQTFRPGWTIAMKRDFAQAIADNWTFGANISHDNLIETTASIIGNGYNLNESVGVHIRYGGNASGNSKFVLNWKSPKTQHITGLKTFVDFYETMQKVVNKYQNDVALNQRLAFEKERLEASKLSLIHNSAFVIKNWRLYNSNSGRMRDLLFAFKKLEHHHHHH
- soluble on expression in E. coli: soluble

Sequence: MGSDKIHHHHHHMSHLQTSNLPFKQRVDQQVHNEIMRKAVVNAQETIGQNRQKMVDELGHWEEWRDLSKQFRNHVLANLDAYLYQLSEKVKQNGGHVFFAETAEEATAYIRKVALAQKAKTIVKSKSMVTEEIGMNHVLEAEGINVVETDLGEYLLQIVGDKPSHIVVPAIHKDRHRIRKELHEKLGYTGSEQPEEMNAFVRKTLRKDFLNADIGISGCNFAVAETGSVCLVTNEGNLRLATTLPKTHIAVMGMERLAPTFKEVDALITMLCRSAVGAKLTAYNTWLTGPRLEGETDGPEDFHLVIVDNGRSKILASEFAEVLRCIRCGACLNTCPAYRQIGGHGYGSIYPGPIGAVISPLLGGYDEFKDLPYACSLCTACNSVCPVKIPLAQLILKHREKLVEEGRTPKGEQLAIKGFSFANSHPSLWGAGVKIGAKIAAKFIKNGKAPLQPGALGEWTKARDLPNPEGQSFREWFANRK
- soluble on expression in E. coli: not soluble

Sequence: MSLLVIVKVQQAKNPLERAFFYAVSPEDYYEQAERLLKEGVIDEEGLKKARIEEYVLGARFNANFHSYALKDVFGNFDFVGFSDRRQVNLQGFLNLPAKDQLKINVPVKNEEIGHFGVTMRESKQQEVYEAAEKFIEACKAEFPPGIIGMFGLQGAMAYSPEDETKLEFVIFDVSFRVPGDPAIGPTSPEMRNLTLKHGVKIEDPLDLTMMEIKKAMELKRMEEIVTEGHHHHHH
- soluble on expression in E. coli: soluble

Sequence: MNGTLDHPDQPDLDAIKMFVGQVPRTWSEKDLRELFEQYGAVYEINVLRDRSQNPPQSKGCCFVTFYTRKAALEAQNALHNMKVLPGMHHPIQMKPADSEKNNAVEDRKLFIGMISKKCTENDIRVMFSSFGQIEECRILRGPDGLSRGCAFVTFTTRAMAQTAIKAMHQAQTMEGCSSPMVVKFADTQKDKEQKRMAQQLQQQMQQISAASVWGNLAGLNTLGPQYLALLQQTASSGNLNTLSSLHPMGGLNAMQLQNLAALAAAASAAQNTPSGTNALTTSSSPLSVLTSSGSSPSSSSSNSVNPIASLGALQTLAGATAGLNVGSLAGMAALNGGLGSSGLSNGTGSTMEALTQAYSGIQQYAAAALPTLYNQNLLTQQSIGAAGSQKEGPEGANLFIYHLPQEFGDQDLLQMFMPFGNVVSAKVFIDKQTNLSKCFGFVSYDNPVSAQAAIQSMNGFQIGMKRLKVQLKRSKNDSKPY
- soluble on expression in E. coli: soluble

Sequence: MGSDKIHHHHHHMSKANFPTDPALTAIAIAYRNRRMIADEVLPRTPVAKQEFTYLHYNLGEGFTVPNARVGRTSRPNQVEFGATQLTSSTEDFALDAPVPLVDIANKPTNYNPKGRATEQTTNLIELGREVRTANLVFNKKSYANGLTKTLSGNNQWSHDDSKPIADLLSALDTPVMRPNIMVLGQKAATALRTNKSIIKAYNGSLGDEGLVPLEYLKELFELEDIYVGQALINTVNQAKKAVLQQAWGNHCALIYRDRLADTNGGTTFGLTAQFGSREVRDIFDENMGMRGGYNVRVGESVKELITAPDLGFFLENVIA
- soluble on expression in E. coli: not soluble

Sequence: MGSDKIHHHHHHLSADHNAFRRALTERWGKAFGEPVIHEDPRTRSLCFGAPGVQSSMRTSDPLELDLPYTRAMMSFQLFCPDPKDILIVGLGGGSLSKYCFHKFPSARVTTVEIDERVIALRDAFFIPPESERFRIVHADAAAYLPDKVGLADVILLDGFDASGLPASLSSQYFYDCCHAALRDEGVLVANLLSSDPRLGAHLDRIHRACHGKLFRTMARREGNTIAIGIRQATWPGWPDLYARAEAITASTGLDLCRYVKKMERHHRVEPVSEHPSSDTLAVEQNR
- soluble on expression in E. coli: not soluble

Sequence: MRGSHHHHHHTDPALRASVRLVLAKGREKSLLRRHPWVFSGAVARMEGKASLGETIDIVDHQGKWLARGAYSPASQIRARVWTFDPSESIDIAFFSRRLQQAQKWRDWLAQKDGLDSYRLIAGESDGLPGITIDRFGNFLVLQLLSAGAEYQRAALISALQTLYPECSIYDRSDVAVRKKEGMELTQGPVTGELPPALLPIEEHGMKLLVDIQHGHKTGYYLDQRDSRLATRRYVENKRVLNCFSYTGGFAVSALMGGCSQVVSVDTSQEALDIARQNVELNKLDLSKAEFVRDDVFKLLRTYRDRGEKFDVIVMDPPKFVENKSQLMGACRGYKDINMLAIQLLNEGGILLTFSCSGLMTSDLFQKIIADAAIDAGRDVQFIEQFRQAADHPVIATYPEGLYLKGFACRVMGLCGR
- soluble on expression in E. coli: soluble

Sequence: MGSDKIHHHHHHDETVYDKLPADDFGQSTAELNALIGNSHNTMKKFWTEYMHLSECSGSMAVTPTRRGGDWYDGGQYREIYMHTWTSQTSRVKSAWKAATEAIGTCNEAIRKLQNSEILTEEEKAQDVADLRGVRAFWIYVMMDYWGNIPLLTEFHPTDKVFPGNSSRQEVFDWLIQEVEEIKDICPPATTENYGSFTQGAAYSLLAKLYLNAEAWGVTFSGNAYQKVIDNCDKVMAMGYILEPNWKDNFSVTNENSKEAILAATFSSSDTGNDGNVKNELHNNTLHYKDYLSLGITASGTWNGICAQPEYVRLFDEEDARLDGTFLTGLMIDKSTGKPIMTDHNNELNHTIDVNMIPGMEYDGTNWSAVEQHDGARCFKWEFASDLTSSMGNDFHIFRLADIYLMKAEALLRGGGSVSEATALVNTIRERGYGNSDHNYATVTLKEVQLERRLELAWEVYSRQDDIRFGCFTTGMWPQSNCERKADDYLKLLPVSQDAWQVNPNLKQNPGYAAFSK
- soluble on expression in E. coli: not soluble

Sequence: MGSDKIHHHHHHMRKWISYPHREGTISRQAHADFPAEAIYEREVGRSGFFGPATHLHHKHPPTAWSAWEGPLRPRAYDLNELPHGTPAPWDAPLVLHNAQCKLRIWRCDQAMTQLSRNADGDDLLFIHGGSGELFCDYGHLSYRDGDYILVPRSTSWRIEPASPTTMLLIETSNGAYQLPEKGLVGPHAIFDEAVLDVPAIDDAFKAQQTEDEWQVVIKRRGALSTVTYPYNPLDAIGWHGNLSVARVNWRDIRPLMSHRYHLPPSAHTTFVADGFVICTFVPRPIESDPGALKVPFYHNNDDYDEVIFYHAGDFFSRDNIKPGMLTFHPAGFTHGPHPKAFAKAMTDPKTFTDEVAVMIDARDALEQGPGLAGVEWQGYVDSWKPKQA
- soluble on expression in E. coli: not soluble

Sequence: MNKEAFERLPQEKKKIIETAYFSAVRKEISASQFFGVCKEALSKDQFESLFSSSTAGREQQEEMKTEHLQDIIQYSGVDLKEEAEHIVRETETNINFGEYEEEDVNNHIGSLMNVPLFREFVSRIGNSRRVGISEESFFLLFQVAKRKMLDIVEKMEESSKWRVEYNLSEFIIRIKNDLSRQLWCLEQIEKAEIEKFTIRRGEEEGRKKVKKTIQEREDLVIKKRLSNTVALAALGIQQKSWMSAEDVRVSEESTAFNSIYSPFDEKALERKVVNRTITMKDFLYVLERDRRYSKSVFTIQHYFRRGSA
- soluble on expression in E. coli: not soluble

Sequence: MSLDIAQIALHQLIKRDEQTLDMVLRDSLLPTNAAVEDMMAELHRVYSAKSKAYGLFNEQSELADALRACRKGDEDFLSFSRAATGRLRDELAKYPFAEGGIVLFCQYRYLAVEYLLISVLNSCNSMRVNEQLDISTTHYLDINHADIIARIDLTEWETNPESTRYLTFLKGRVGRKVSDFFMDFLAASEGLDTKAQNRGLLKAVDEYCDEAQLDKNERQNYRQQVHSYCTEQLQSGEEIELASLSQELPPLGEKTFQQFSADQGYELEESFPADRGTLRQLTKFAGSGGGISLNFDALLLGERIFWDPATDTLTIKGTPPNLRDQLQRRTSGGKQLEHHHHHH
- soluble on expression in E. coli: not soluble

Sequence: MSSKYNSLKLVKVKNVGDFVYKVSLNRPSKFNALNMVIWKEIGDCFQLIDEDPECRVVILQGEGKHFCSGLDLSEVTFLNGEEADDSARRGRSILRTIKFMQKQFTYIDECSKPVILAMHGYCLGAALDIATACDVRVATKDAVLSVKEVDIGMAADVGTLNRLPKIVGNHSWIKDISLSARHFSAGEALQFGLLSRVYDTREEMINEVLKMAKLIALKSPVGVQGTKNALNYARDHTVENSLNYVATWNMSQLFTDDIMKASMASLSKQPTPPFSKL
- soluble on expression in E. coli: not soluble

Sequence: KRYIPSVNDFVIGVIIGTFSDSYKVSLQNFSSSVSLSYMAFPNASKKNRPTLQVGDLVYARVCTAEKELEAEIECFDSTTGRDAGFGILEDGMIIDVNLNFARQLLFNNDFPLLKVLAAHTKFEVAIGLNGKIWVKCEELSNTLACYRTIMECCQKNDTAAFKDIAKRQFKEILT
- soluble on expression in E. coli: soluble
